Results published in patent US20220332804A1 (CSL INNOVATION, published 2022).

How the values were obtained:
Assay in all cases: SPR, KD relative to WT C2;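 further: biacore SPR at 37 °C, anti-C2 mAbs captured via immobilised goat anti-human IgG, C2 alanine or serine surface mutants as analytes, 1:1 model fitted, double-referenced sensograms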
human C2 N703A = target: T1, human C2 N703A (human, UniProt P06681 21-752)
T1 sequence: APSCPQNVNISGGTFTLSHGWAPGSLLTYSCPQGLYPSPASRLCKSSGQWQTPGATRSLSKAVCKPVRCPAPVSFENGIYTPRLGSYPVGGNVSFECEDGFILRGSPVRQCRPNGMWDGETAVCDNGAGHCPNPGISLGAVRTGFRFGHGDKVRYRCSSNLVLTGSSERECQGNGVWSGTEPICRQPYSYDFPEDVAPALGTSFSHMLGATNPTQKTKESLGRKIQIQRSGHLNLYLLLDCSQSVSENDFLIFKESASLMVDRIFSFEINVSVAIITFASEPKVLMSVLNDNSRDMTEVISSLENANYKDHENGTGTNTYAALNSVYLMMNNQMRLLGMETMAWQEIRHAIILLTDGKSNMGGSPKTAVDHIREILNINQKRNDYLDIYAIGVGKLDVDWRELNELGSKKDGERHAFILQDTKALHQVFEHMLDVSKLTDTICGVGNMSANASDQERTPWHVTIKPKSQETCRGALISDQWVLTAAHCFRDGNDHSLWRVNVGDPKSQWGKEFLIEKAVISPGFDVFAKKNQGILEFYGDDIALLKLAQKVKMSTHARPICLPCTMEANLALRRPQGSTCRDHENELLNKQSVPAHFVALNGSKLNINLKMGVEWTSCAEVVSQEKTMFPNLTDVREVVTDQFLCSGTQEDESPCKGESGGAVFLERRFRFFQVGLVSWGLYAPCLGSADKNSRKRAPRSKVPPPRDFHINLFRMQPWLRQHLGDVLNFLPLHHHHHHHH
Protocol: (§1) Surface plasmon resonance (SPR, Biacore) was used for all binding affinity analyses. In brief, goat anti-human IgG was directly immobilised onto the carboxymethyl dextran surface of CM5 sensorchips to approximately 12,000 RU using standard NHS/EDC chemistry at pH 5. The immobilised antibody surface was pre-conditioned with ten injections of polyclonal human IgG (Privigen 60 s) prepared at 1 μg/mL. Ligands (anti-C2 mAbs) were captured at the beginning of each cycle as described below. An adjacent spot or flow cell in which only Polyclonal IgG was capture was used as a reference surface. The goat anti-human IgG Fc antibody surface was regenerate in 100 mM H3PO4, injected for 45 seconds at the end of each cycle. Experiments were performed at 37° C. and the flow rate of each experiment was kept constant at 30 μL/min.
(§2) Sensogram data was double-referenced against a reference anti-IgG surface (i.e. minus anti-C2 mAb) and blank buffer injections obtained within each experiment. The binding data was fit to 1:1 (kinetic or steady-state) model using local Rmax and null refraction index (RI=0) when appropriate. Buffers and solutions were filtered (0.22 μm) prior to use.

human C2 D710A = target: T2, human C2 D710A (human, UniProt P06681 21-752)
T2 sequence: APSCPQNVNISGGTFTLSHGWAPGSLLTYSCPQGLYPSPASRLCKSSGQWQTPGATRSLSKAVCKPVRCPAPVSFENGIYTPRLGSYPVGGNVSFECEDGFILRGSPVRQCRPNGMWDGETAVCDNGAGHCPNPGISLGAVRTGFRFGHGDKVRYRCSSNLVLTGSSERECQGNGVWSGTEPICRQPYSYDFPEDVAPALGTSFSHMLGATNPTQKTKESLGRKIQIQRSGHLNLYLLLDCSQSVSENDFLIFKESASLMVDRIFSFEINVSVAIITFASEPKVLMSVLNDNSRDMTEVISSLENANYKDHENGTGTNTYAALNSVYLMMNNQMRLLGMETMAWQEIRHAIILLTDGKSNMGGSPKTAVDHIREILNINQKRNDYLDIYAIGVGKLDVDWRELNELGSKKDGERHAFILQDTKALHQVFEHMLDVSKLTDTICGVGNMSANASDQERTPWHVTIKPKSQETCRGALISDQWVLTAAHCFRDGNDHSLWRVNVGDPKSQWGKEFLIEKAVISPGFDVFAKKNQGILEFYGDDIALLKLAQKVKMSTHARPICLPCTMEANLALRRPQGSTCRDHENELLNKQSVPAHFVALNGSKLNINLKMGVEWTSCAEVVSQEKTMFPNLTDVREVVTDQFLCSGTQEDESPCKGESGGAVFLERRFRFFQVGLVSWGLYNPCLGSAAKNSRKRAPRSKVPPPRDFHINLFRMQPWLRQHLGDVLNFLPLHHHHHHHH
Protocol: as §1, §2

human C2 N403A = target: T3, human C2 N403A (human, UniProt P06681 21-752)
T3 sequence: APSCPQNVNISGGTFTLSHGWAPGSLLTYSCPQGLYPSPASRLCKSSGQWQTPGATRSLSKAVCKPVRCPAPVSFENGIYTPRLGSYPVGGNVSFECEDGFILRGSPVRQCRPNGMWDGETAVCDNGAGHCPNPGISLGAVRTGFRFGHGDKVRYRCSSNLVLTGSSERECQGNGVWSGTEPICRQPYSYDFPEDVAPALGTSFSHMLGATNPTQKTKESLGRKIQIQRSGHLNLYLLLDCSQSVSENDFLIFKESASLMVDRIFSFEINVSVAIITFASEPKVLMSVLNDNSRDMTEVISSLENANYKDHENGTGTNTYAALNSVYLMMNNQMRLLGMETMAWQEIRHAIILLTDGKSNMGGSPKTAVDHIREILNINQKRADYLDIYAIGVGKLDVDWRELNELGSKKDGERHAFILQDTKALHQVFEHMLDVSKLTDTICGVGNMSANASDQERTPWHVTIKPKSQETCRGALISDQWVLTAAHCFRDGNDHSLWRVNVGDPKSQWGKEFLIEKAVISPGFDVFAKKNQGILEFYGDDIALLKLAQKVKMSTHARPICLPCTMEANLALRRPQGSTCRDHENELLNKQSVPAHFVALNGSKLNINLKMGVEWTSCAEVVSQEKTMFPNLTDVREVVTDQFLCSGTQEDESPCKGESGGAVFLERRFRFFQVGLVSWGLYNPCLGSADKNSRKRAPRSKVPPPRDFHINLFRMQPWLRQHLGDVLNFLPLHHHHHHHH
Protocol: as §1, §2

human C2 G466A = target: T4, human C2 G466A (human, UniProt P06681 21-752)
T4 sequence: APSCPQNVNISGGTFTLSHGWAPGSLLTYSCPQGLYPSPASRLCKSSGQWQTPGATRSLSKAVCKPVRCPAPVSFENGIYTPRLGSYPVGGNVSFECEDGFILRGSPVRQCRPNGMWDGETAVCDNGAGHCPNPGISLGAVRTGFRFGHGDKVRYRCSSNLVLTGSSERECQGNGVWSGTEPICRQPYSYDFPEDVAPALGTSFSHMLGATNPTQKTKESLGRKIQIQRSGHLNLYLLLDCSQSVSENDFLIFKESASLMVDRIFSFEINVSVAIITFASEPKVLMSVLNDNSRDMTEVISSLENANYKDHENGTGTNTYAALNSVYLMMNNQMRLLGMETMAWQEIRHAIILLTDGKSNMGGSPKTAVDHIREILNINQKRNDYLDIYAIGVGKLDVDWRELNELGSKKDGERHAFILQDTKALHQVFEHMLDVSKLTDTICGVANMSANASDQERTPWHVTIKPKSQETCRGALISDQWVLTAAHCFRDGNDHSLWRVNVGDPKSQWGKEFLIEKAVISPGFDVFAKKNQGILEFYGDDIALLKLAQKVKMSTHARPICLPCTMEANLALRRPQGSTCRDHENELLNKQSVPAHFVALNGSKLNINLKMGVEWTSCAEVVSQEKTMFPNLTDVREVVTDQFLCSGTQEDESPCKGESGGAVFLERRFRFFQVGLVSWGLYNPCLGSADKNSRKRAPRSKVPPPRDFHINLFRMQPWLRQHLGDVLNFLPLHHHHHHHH
Protocol: as §1, §2

B1: RF16-226 (antibody, human IgG4 S228P, lambda)
heavy: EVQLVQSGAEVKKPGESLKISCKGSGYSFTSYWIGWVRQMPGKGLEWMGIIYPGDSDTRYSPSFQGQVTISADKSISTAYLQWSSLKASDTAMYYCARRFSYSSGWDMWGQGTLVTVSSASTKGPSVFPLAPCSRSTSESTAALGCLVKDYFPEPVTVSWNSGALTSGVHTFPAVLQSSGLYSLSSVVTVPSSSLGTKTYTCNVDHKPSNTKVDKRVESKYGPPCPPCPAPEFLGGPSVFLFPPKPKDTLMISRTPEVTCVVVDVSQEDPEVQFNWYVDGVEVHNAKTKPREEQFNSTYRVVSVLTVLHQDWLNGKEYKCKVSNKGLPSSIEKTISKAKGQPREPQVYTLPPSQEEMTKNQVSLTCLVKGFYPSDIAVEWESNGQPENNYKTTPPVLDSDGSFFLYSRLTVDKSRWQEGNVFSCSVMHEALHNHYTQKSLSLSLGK
light: SYELTQPPSVSVSPGQTARITCSGDALTSKYVAWYQQKSGLAPLLVIYEDTRRPSGIPAKFSGSSSGSVATLTISGAHGDDEADYYCYSTDASGHQRVFGGGTKLTVLSQPKAAPSVTLFPPSSEELQANKATLVCLISDFYPGAVTVAWKADGSPVKAGVETTKPSKQSNNKYAASSYLSLTPEQWKSHRSYSCQVTHEGSTVEKTVAPTECS
notes: pH-dependent anti-C2 antibody from a phage display library; also called WT
B1 was tested, and the Fold diff (human C2 N703A) was 29 fold, the Fold diff (human C2 D710A) was 10 fold and the Fold diff (human C2 N403A) was 1 fold. For the same binder, the Fold diff (human C2 G466A) was 3 fold.
